Data on 1 molecule can be found in paper PMC12399569 (2025).

In general, Kd refers to the equilibrium constant for the complex coming apart. Read a low Kd as tighter binding.

In the assay the target is purified hTMPRSS2 protein (human, UniProt O15393 1-492). Put plainly: SPR.
purified hTMPRSS2 protein, sequence (O15393 whole entry): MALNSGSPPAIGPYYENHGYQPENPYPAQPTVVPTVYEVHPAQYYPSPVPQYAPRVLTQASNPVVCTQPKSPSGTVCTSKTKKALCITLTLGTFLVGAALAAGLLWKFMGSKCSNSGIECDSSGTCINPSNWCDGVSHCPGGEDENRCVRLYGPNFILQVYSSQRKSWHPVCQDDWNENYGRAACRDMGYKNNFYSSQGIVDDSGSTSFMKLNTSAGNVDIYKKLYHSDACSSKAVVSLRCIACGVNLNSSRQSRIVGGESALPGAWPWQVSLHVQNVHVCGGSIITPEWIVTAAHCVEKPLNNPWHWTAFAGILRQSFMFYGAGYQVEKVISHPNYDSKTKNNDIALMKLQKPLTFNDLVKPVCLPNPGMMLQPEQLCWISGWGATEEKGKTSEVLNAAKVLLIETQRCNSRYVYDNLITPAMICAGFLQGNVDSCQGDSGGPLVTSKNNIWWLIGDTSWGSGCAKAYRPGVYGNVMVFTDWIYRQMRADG

B1: Spike protein (recombinant, analyte of the ternary SPR experiment) (natural protein)
chain: CQTTNGLNTSYSVCNGCVGYSENVFAVESGGYIPSDFAFNNWFLLTNTSSVVDGVVRSFQPLLLNCLWSVSGLRFTTGFVYFNGTGRGDCKGFSSDVLSDVIRYNLNFEENLRRGTILFKTSYGVVVFYCTNNTLVSGDAHIPFGTVLGNFYCFVNTTIGNETTSAFVGALPKTVREFVISRTGHFYINGYRYFTLGNVEAVNFNVTTAETTDFCTVALASYADVLVNVSQTSIANIIYCNSVINRLRCDQLSFDVPDGFYSTSPIQSVELPVSIVSLPVYHKHTFIVLYVDFKPQSGGGKCFNCYPAGVNITLANFNETKGPLCVDTSHFTTKYVAVYANVGRWSASINTGNCPFSFGKVNNFVKFGSVCFSLKDIPGGCAMPIVANWAYSKYYTIGSLYVSWSDGDGITGVPQPVEGVSSFMNVTLDKCTKYNIYDVSGVGVIRVSNDTFLNGITYTSTSGNLLGFKDVTKGTIYSITPCNPPDQLVVYQQAVVGAMLSENFTSYGFSNVVELPKFFYASNGTYNCTDAVLTYSSFGVCADGSIIAVQPRNVSYDSVSAIVTANLSIPSNWTTSVQVEYLQITSTPIVVDCSTYVCNGNVRCVELLKQYTSACKTIEDALRNSARLESADVSEMLTFDKKAFTLANVSSFGDYNLSSVIPSLPTSGSRVAGRSAIEDILFSKLVTSGLGTVDADYKKCTKGLSIADLACAQYYNGIMVLPGVADAERMAMYTGSLIGGIALGGLTSAVSIPFSLAIQARLNYVALQTDVLQENQKILAASFNKAMTNIVDAFTGVNDAITQTSQALQTVATALNKIQDVVNQQGNSLNHLTSQLRQNFQAISSSIQAIYDRLDTIQADQQVDRLITGRLAALNVFVSHTLTKYTEVRASRQLAQQKVNECVKSQSKRYGFCGNGTHIFSIVNAAPEGLVFLHTVLLPTQYKDVEAWSGLCVDGTNGYVLRQPNLALYKEGNYYRITSRIMFEPRIPTMADFVQIENCNVTFVNISRSELQTIVPEYIDVNKTLQELSYKLPNYTVPDLVVEQYNQTILNLTSEISTLENKSAELNYTVQKLQTLIDNINSTLVDLKWLNRVETYIKWP
As to B1, the Kd came to 1360 nM.
